Data set [1] in a line: DiFMUP phosphatase assay, crude secreted fractions. The note with it: glycan lost; control: wild-type r-hPAP.
Data set [2] in a line: DiFMUP assay with 70 mM L-(+)-tartrate. The note with it: glycan lost; control: wild-type r-hPAP.
Data set [3] in a line: anti-hPAP western blot, lysates and secreted fractions. The note with it: glycan lost; control: wild-type r-hPAP.
Data set [4] is described as follows: DiFMUP phosphatase assay, crude cell lysates. The note with it: glycan lost; control: wild-type r-hPAP.
Data set [5] can be described thus: DiFMUP phosphatase assay after 24 h PNGase F. The note with it: glycan lost; control: untreated r-hPAP.

B1: secretory human prostatic acid phosphatase (hPAP, S-PAP): N62Q (protein)
parent chain: MRAAPLLLARAASLSLGFLFLLFFWLDRSVLAKELKFVTLVFRHGDRSPIDTFPTDPIKESSWPQGFGQLTQLGMEQHYELGEYIRKRYRKFLNESYKHEQVYIRSTDVDRTLMSAMTNLAALFPPEGVSIWNPILLWQPIPVHTVPLSEDQLLYLPFRNCPRFQELESETLKSEEFQKRLHPYKDFIATLGKLSGLHGQDLFGIWSKVYDPLYCESVHNFTLPSWATEDTMTKLRELSELSLLSLYGIHKQKEKSRLQGGVLVNEILNHMKRATQIPSYKKLIMYSAHDTTVSGLQMALDVYNGLLPPYASCHLTELYFEKGEYFVEMYYRNETQHEPYPLMLPGCSPSCPLERFAELVGPVIPQDWSTECMTTNSHQGTEDSTD
With B1, the “enzymatic_activity, other: RFU/µg total protein at 10 min” value in data set [1] was “decreases, 67.0 (2.78) vs 109.5 (1.44)”; in data set [4] it was “decreases, 7.8 (0.29) vs 12.2 (0.28)”. Also, the “other: inhibition by L-(+)-tartrate” value in data set [2] is “no change”. Besides, the expression_or_secretion result in data set [3] was “no change”.

B2: secretory human prostatic acid phosphatase (hPAP, S-PAP): N301Q (protein)
parent chain: MRAAPLLLARAASLSLGFLFLLFFWLDRSVLAKELKFVTLVFRHGDRSPIDTFPTDPIKESSWPQGFGQLTQLGMEQHYELGEYIRKRYRKFLNESYKHEQVYIRSTDVDRTLMSAMTNLAALFPPEGVSIWNPILLWQPIPVHTVPLSEDQLLYLPFRNCPRFQELESETLKSEEFQKRLHPYKDFIATLGKLSGLHGQDLFGIWSKVYDPLYCESVHNFTLPSWATEDTMTKLRELSELSLLSLYGIHKQKEKSRLQGGVLVNEILNHMKRATQIPSYKKLIMYSAHDTTVSGLQMALDVYNGLLPPYASCHLTELYFEKGEYFVEMYYRNETQHEPYPLMLPGCSPSCPLERFAELVGPVIPQDWSTECMTTNSHQGTEDSTD
With B2, the expression_or_secretion result in data set [3] is recorded as “abolishes”.

B3: secretory human prostatic acid phosphatase (hPAP, S-PAP): N188Q (protein)
parent chain: MRAAPLLLARAASLSLGFLFLLFFWLDRSVLAKELKFVTLVFRHGDRSPIDTFPTDPIKESSWPQGFGQLTQLGMEQHYELGEYIRKRYRKFLNESYKHEQVYIRSTDVDRTLMSAMTNLAALFPPEGVSIWNPILLWQPIPVHTVPLSEDQLLYLPFRNCPRFQELESETLKSEEFQKRLHPYKDFIATLGKLSGLHGQDLFGIWSKVYDPLYCESVHNFTLPSWATEDTMTKLRELSELSLLSLYGIHKQKEKSRLQGGVLVNEILNHMKRATQIPSYKKLIMYSAHDTTVSGLQMALDVYNGLLPPYASCHLTELYFEKGEYFVEMYYRNETQHEPYPLMLPGCSPSCPLERFAELVGPVIPQDWSTECMTTNSHQGTEDSTD
For the protein B3, in data set [2], the “other: inhibition by L-(+)-tartrate” value is “no change”. In addition, the expression_or_secretion entry in data set [3] is listed as “decreases”.

B4: secretory human prostatic acid phosphatase (hPAP, S-PAP): N62Q, N188Q, N301Q (protein)
parent chain: MRAAPLLLARAASLSLGFLFLLFFWLDRSVLAKELKFVTLVFRHGDRSPIDTFPTDPIKESSWPQGFGQLTQLGMEQHYELGEYIRKRYRKFLNESYKHEQVYIRSTDVDRTLMSAMTNLAALFPPEGVSIWNPILLWQPIPVHTVPLSEDQLLYLPFRNCPRFQELESETLKSEEFQKRLHPYKDFIATLGKLSGLHGQDLFGIWSKVYDPLYCESVHNFTLPSWATEDTMTKLRELSELSLLSLYGIHKQKEKSRLQGGVLVNEILNHMKRATQIPSYKKLIMYSAHDTTVSGLQMALDVYNGLLPPYASCHLTELYFEKGEYFVEMYYRNETQHEPYPLMLPGCSPSCPLERFAELVGPVIPQDWSTECMTTNSHQGTEDSTD
Take B4: the expression_or_secretion entry in data set [3] is “abolishes”.

B5: secretory human prostatic acid phosphatase (hPAP, S-PAP): PNGase F (protein)
parent chain: MRAAPLLLARAASLSLGFLFLLFFWLDRSVLAKELKFVTLVFRHGDRSPIDTFPTDPIKESSWPQGFGQLTQLGMEQHYELGEYIRKRYRKFLNESYKHEQVYIRSTDVDRTLMSAMTNLAALFPPEGVSIWNPILLWQPIPVHTVPLSEDQLLYLPFRNCPRFQELESETLKSEEFQKRLHPYKDFIATLGKLSGLHGQDLFGIWSKVYDPLYCESVHNFTLPSWATEDTMTKLRELSELSLLSLYGIHKQKEKSRLQGGVLVNEILNHMKRATQIPSYKKLIMYSAHDTTVSGLQMALDVYNGLLPPYASCHLTELYFEKGEYFVEMYYRNETQHEPYPLMLPGCSPSCPLERFAELVGPVIPQDWSTECMTTNSHQGTEDSTD
Turning to B5, the enzymatic_activity result in data set [5] is reported as “no change”.

B6: secretory human prostatic acid phosphatase (hPAP, S-PAP): N62Q, N188Q (protein)
parent chain: MRAAPLLLARAASLSLGFLFLLFFWLDRSVLAKELKFVTLVFRHGDRSPIDTFPTDPIKESSWPQGFGQLTQLGMEQHYELGEYIRKRYRKFLNESYKHEQVYIRSTDVDRTLMSAMTNLAALFPPEGVSIWNPILLWQPIPVHTVPLSEDQLLYLPFRNCPRFQELESETLKSEEFQKRLHPYKDFIATLGKLSGLHGQDLFGIWSKVYDPLYCESVHNFTLPSWATEDTMTKLRELSELSLLSLYGIHKQKEKSRLQGGVLVNEILNHMKRATQIPSYKKLIMYSAHDTTVSGLQMALDVYNGLLPPYASCHLTELYFEKGEYFVEMYYRNETQHEPYPLMLPGCSPSCPLERFAELVGPVIPQDWSTECMTTNSHQGTEDSTD
For the protein B6, in data set [2], the “other: inhibition by L-(+)-tartrate” value is recorded as “no change”. Further, in data set [3], the expression_or_secretion entry was “decreases”.

B7: secretory human prostatic acid phosphatase (hPAP, S-PAP): N188Q, N301Q (protein)
parent chain: MRAAPLLLARAASLSLGFLFLLFFWLDRSVLAKELKFVTLVFRHGDRSPIDTFPTDPIKESSWPQGFGQLTQLGMEQHYELGEYIRKRYRKFLNESYKHEQVYIRSTDVDRTLMSAMTNLAALFPPEGVSIWNPILLWQPIPVHTVPLSEDQLLYLPFRNCPRFQELESETLKSEEFQKRLHPYKDFIATLGKLSGLHGQDLFGIWSKVYDPLYCESVHNFTLPSWATEDTMTKLRELSELSLLSLYGIHKQKEKSRLQGGVLVNEILNHMKRATQIPSYKKLIMYSAHDTTVSGLQMALDVYNGLLPPYASCHLTELYFEKGEYFVEMYYRNETQHEPYPLMLPGCSPSCPLERFAELVGPVIPQDWSTECMTTNSHQGTEDSTD
With B7, in data set [3], the expression_or_secretion entry is on record as “abolishes”.

B8: secretory human prostatic acid phosphatase (hPAP, S-PAP): N62Q, N301Q (protein)
parent chain: MRAAPLLLARAASLSLGFLFLLFFWLDRSVLAKELKFVTLVFRHGDRSPIDTFPTDPIKESSWPQGFGQLTQLGMEQHYELGEYIRKRYRKFLNESYKHEQVYIRSTDVDRTLMSAMTNLAALFPPEGVSIWNPILLWQPIPVHTVPLSEDQLLYLPFRNCPRFQELESETLKSEEFQKRLHPYKDFIATLGKLSGLHGQDLFGIWSKVYDPLYCESVHNFTLPSWATEDTMTKLRELSELSLLSLYGIHKQKEKSRLQGGVLVNEILNHMKRATQIPSYKKLIMYSAHDTTVSGLQMALDVYNGLLPPYASCHLTELYFEKGEYFVEMYYRNETQHEPYPLMLPGCSPSCPLERFAELVGPVIPQDWSTECMTTNSHQGTEDSTD
On to B8, for which the expression_or_secretion result in data set [3] is “abolishes”.

(Values after PMC3289678.)
